Paper PMC4161341 (PLoS ONE, 2014)

B1: L1-E2 (VHH)
VHH: EVQLQASGGGLVQPGGSLRLSCAASGFSISSATMSWVRQAPGKGLEWVSTVQDGAGIISSADSAKARFTISRDSAKNTLYLQMNSLKPEDTAVYYCRTVVFGRILRGQGTQVTVSS
notes: llama sdAb, only member of the L1-E2 family; also called sdAb L1-E2
B2: L1-C5 (VHH)
VHH: EVQLQASGGGLVQAGGSLRLSCIASGRAFSTTNMGWFRQAPGKEREFVTRVNWSGGVTSYADSVKGRFTLSRDYTKNTVYLQMNSLKPEDTAVYYCAGSTVWSTDRAHYNYWGQGTQVTVSS
notes: llama sdAb of the L1-H7 family; has a single N to Y substitution in framework 3 not seen in other members of the family; also called sdAb L1-C5
B3: L1-G2 (VHH)
VHH: EVQLQASGGGLVQAGGSLRLSCTASGRAFSTTNMGWFRQAPGKEREFVTRVNWSGGVTSYADSVKGRFTLSRDNTKNTVYLQMDSLKPEDTAVYYCAGSTVWSTDRKHYNYWGQGTQVTVSS
notes: llama sdAb of the L1-H7 family; also called sdAb L1-G2
B4: L1-H7 (VHH)
VHH: EVQLQASGGGLVQAGGSLRLSCIASGRAFSTTNMGWFRQAPGKEREFVTRVNWSGGVTSYADSVKGRFTLSRDNTKNTVYLQMNSLKPEDTAVYYCAGSTVWSTDRAHYNYWGRGTQVTVSS
notes: llama sdAb of the L1-H7 family; also called sdAb L1-H7
B5: L1-E6 (VHH)
VHH: EVQLQASGGGLVQAGGSLRLSCIASGRAFSTTNMGWFRQAPGKEREFVTRVNWSGGVTSYADPVKGRFTLSRDNTKNTVYLQMNSLKPEDTAVYYCAGSTVWSTDGAHYNYWGQGTQVTVSS
notes: llama sdAb of the L1-H7 family; also called sdAb L1-E6
B6: L1-G2+ (VHH)
VHH: EVQLQASGGGLVQAGGSLRLSCTASGRAFSTTNMGWFRQAPGKEREFVCRVNWSGGVTSYADSVKGRFTCSRDNTKNTVYLQMDSLKPEDTAVYYCAGSTVWSTDRKHYNYWGQGTQVTVSS
notes: also called disulfide mutant of L1-G2
B7: L1-H2 (VHH)
VHH: EVQLQASGGGLVQAGGSLRLSCAASGRTLSTGVMGWFRQLPGKEREFVARITWIAGSSLYADSVKGRFTISRDNTNNTVYLQMNALKPEDTAVYYCAANLAGNSWPYKTPMDYDSWGQGTQVTVSS
notes: llama sdAb of the L1-H2 family; also called sdAb L1-H2

Target: T1, Vaccinia Virus, Western Reserve, L1R Protein with C-Terminal Histidine Tag (Vaccinia virus, strain Western Reserve, UniProt P07612)
T1 construct: also called L1 antigen; recombinant L1 antigen; source: obtained through BEI Resources (NR-2625), recombinant from baculovirus
Test: SPR; […] (10 µg/ml, […], dissociation 600 s; […]
Conditions: both partners purified

Compared with B1, B2 is 5.7-fold higher in Kd: 0.7 nM for the first, 4 nM for the second.

B3 and B4 are within 1.5-fold of each other in Kd: 1.9 nM for the first, 1.5 nM for the second.

Compared with B5, B6 is 2.6-fold lower in Kd: 2.6 nM for the first, 1 nM for the second. The second binds more tightly here.

In the case of B7, the Kd is reported as 1.8 nM.

Going from B1 to B2, the koff rises from 0.0045 s⁻¹ to 0.032 s⁻¹ (7.1-fold).

B3 and B4 are within 1.5-fold of each other in koff: 0.001 s⁻¹ for the first, 0.00087 s⁻¹ for the second.

Compared with B5, B6 is 2.1-fold higher in koff: 0.001 s⁻¹ for the first, 0.0021 s⁻¹ for the second.

Work on B7 yielded a koff of 0.0021 s⁻¹.

B1 and B2 are within 1.5-fold of each other in kon: 6.5e+06 M⁻¹ s⁻¹ for the first, 7.2e+06 M⁻¹ s⁻¹ for the second.

B3 and B4 are within 1.5-fold of each other in kon: 530000 M⁻¹ s⁻¹ for the first, 560000 M⁻¹ s⁻¹ for the second.

Compared with B5, B6 is 5.4-fold higher in kon: 390000 M⁻¹ s⁻¹ for the first, 2.1e+06 M⁻¹ s⁻¹ for the second.

Binder B7 has a kon of 1.2e+06 M⁻¹ s⁻¹.
